{"source": "patent US20150038419A1", "about": "(US Dept. of Health and Human Services, published 2015)", "key": {"[1]": {"molecular_target": "T1, human activated coagulation factor X (FXa) (human, UniProt P00742 41-179; P00742 235-488)", "T1 construct": "mature; also called Factor Xa; human FXa", "T1 sequence (P00742 41-179 limits assumed, chain 1 of 2)": "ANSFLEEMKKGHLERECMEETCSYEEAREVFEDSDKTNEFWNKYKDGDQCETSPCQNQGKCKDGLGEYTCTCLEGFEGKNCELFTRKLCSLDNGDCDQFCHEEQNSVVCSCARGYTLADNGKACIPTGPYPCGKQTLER", "T1 sequence (P00742 235-488 limits assumed, chain 2 of 2)": "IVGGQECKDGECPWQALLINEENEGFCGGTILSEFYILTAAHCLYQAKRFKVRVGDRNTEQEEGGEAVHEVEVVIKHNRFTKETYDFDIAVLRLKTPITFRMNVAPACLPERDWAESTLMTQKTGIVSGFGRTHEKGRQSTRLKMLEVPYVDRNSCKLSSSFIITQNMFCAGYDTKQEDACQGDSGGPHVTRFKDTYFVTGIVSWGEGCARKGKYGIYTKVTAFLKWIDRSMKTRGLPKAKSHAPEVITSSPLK", "assay": "SPR (Biacore T100), rSimukunin immobilized on CM5, FXa as analyte, 1:1 Langmuir fit", "description": "(§1) Data were fitted using a […] binding model (Langmuir). RU: resonance units.\n(§2) Surface plasmon resonance (SPR) assays. SPR experiments were conducted using a T100 instrument (Biacore Inc., Uppsala, Sweden) following the manufacturer's instructions. Sensor CM5, amine coupling reagents, and buffers were also purchased from Biacore Inc. (Piscataway, N.J., USA). IBS P (10 mM Hepes, pH 7.4, 150 mM NaCl, and 0.005% (v/v) P20 surfactant) was used as the running buffer for all SPR experiments, which were carried out as previously described (Albrecht et al., 1983, Hoppe Seylers Z Physiol Chem; 364:1697-1702). For analytes, FVIIa (recombinant) was purchased from American Diagnostica (Stamford, Conn.); FX, FXa (human, bovine, mouse), DEGR-FXa (human), des-Gla-FXa (human), FIXa, FXIa, FXIIIa, and thrombin were purchased from Haematologic Technologies, Inc. (Essex Junction, Vt.); elastase (purified from human sputum) was purchased from Molecular Innovations, Inc. (Novi, Mich.). All enzymes were of the highest available purity. For immobilization and kinetic analysis, rSimukunin (10 μg/ml) in acetate buffer pH 5.0 was immobilized over a CM5 sensor via amine coupling, resulting in a final immobilization of 475.3 RU. Kinetic experiments were carried out with a contact time of 180 seconds at a flow rate of 30 μl/minute at 25° C. rSimukunin-FXa complex dissociation was monitored for 1800 seconds, and the sensor surface was regenerated by a pulse of 30 seconds of 20 mM HCl at 30 μl/minute. In other experiments, other coagulation factors or enzymes were used as analytes. Blank flow cells were used to subtract the buffer effect on sensorgrams."}, "chymase (human)": {"molecular_target": "T2, chymase (human) (human, UniProt P23946 22-247)", "T2 construct": "mature", "T2 sequence (looked up)": "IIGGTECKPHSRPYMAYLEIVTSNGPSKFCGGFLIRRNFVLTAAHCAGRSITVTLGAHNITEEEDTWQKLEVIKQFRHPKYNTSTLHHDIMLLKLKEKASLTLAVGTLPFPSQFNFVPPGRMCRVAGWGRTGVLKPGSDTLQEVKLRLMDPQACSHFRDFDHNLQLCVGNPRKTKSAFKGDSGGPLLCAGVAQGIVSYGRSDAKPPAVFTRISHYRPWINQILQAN", "assay": "enzyme inhibition assay, fluorogenic peptide substrate, 500 nM rSimukunin, 1.8 nM enzyme", "description": "Serine protease inhibition assays. rSimukunin (500 nM) was first pre-incubated with each enzyme for 10 min before the addition of the corresponding substrate. The amount of enzyme used in the assays was the lowest possible to give a linear substrate hydrolysis rate in the assays (r²>0.95). After incubation for 5 min at 30° C., substrate hydrolysis rate was followed in a Tecan Infinite M200 96-well plate fluorescence reader (Tecan group Ltd, Switzerland) using 365 nm excitation and 450 nm emission wavelength with a cutoff at 435 nm for 20 min at 30° C. Wells without enzyme were used to monitor spontaneous substrate hydrolysis and protease contamination in the inhibitor preparation. A t-test was used for the statistical analysis of the observed inhibition in the presence of 500 nM rSimukunin and when p<0.05, it was considered as statistically significant.\nAll enzymes used were of human origin and of the highest available purity. […]"}, "cathepsin G (human) [2]": {"molecular_target": "T3, cathepsin G (human) (human, UniProt P08311 21-244)", "T3 sequence (looked up)": "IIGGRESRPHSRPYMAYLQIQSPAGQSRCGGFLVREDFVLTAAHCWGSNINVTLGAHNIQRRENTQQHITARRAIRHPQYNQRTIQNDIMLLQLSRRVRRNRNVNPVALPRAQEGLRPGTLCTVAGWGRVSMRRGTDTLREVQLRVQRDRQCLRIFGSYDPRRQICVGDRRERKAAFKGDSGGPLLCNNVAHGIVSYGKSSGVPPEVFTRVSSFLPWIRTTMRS", "assay": "cell-based or functional assay"}, "[3]": {"molecular_target": "T4, elastase (human; for SPR purified from human sputum) (human, UniProt P08246 30-267)", "T4 sequence (looked up)": "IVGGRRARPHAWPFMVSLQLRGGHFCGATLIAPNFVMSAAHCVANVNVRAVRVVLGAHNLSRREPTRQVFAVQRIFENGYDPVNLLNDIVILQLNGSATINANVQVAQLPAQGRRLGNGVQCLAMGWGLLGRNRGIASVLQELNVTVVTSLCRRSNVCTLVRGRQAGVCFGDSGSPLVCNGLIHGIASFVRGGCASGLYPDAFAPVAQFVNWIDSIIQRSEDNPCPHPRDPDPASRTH", "assay": "cell-based or functional assay"}, "kallikrein (human)": {"molecular_target": "kallikrein (human) (human, UniProt P03952 20-638, limits assumed)", "sequence (P03952 20-638 limits assumed)": "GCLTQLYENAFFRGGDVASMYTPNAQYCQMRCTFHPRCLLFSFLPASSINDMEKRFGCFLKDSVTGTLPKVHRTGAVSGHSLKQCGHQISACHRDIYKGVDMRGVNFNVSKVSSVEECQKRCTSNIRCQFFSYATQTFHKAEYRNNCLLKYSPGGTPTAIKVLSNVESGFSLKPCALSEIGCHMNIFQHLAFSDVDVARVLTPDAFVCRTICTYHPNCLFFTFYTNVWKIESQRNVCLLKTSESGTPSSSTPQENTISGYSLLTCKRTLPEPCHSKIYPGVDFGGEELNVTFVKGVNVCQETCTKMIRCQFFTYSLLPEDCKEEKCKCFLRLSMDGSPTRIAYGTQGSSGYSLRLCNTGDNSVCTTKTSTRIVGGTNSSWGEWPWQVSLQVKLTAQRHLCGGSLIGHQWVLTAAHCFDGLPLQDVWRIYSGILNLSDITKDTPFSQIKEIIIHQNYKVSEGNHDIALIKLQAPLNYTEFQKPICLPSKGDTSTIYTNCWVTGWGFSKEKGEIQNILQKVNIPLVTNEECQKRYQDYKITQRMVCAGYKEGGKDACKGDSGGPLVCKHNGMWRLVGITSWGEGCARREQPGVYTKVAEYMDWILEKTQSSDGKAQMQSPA", "assay": "cell-based or functional assay"}, "[4]": {"molecular_target": "coagulation Factor XIa (FXIa) (human, UniProt P03951 19-625)", "sequence (P03951 19-625 limits assumed)": "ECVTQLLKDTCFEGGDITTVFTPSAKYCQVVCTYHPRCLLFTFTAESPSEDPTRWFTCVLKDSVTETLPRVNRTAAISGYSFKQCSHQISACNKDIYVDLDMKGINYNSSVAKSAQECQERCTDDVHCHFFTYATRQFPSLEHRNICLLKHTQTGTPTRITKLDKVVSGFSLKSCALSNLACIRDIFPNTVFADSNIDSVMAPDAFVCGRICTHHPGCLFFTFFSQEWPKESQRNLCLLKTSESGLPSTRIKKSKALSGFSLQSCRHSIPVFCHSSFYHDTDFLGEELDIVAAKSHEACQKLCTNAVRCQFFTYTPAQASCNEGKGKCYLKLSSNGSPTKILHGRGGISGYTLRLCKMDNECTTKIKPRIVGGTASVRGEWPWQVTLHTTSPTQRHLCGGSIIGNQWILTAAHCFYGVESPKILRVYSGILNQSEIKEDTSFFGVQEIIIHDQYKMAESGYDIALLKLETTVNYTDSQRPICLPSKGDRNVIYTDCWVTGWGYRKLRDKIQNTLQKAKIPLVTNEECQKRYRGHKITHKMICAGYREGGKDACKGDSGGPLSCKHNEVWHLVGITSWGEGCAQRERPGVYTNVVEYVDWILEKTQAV", "assay": "cell-based or functional assay"}, "[5]": {"molecular_target": "trypsin (sequencing grade, Roche) (human)", "sequence (P00760 24-246)": "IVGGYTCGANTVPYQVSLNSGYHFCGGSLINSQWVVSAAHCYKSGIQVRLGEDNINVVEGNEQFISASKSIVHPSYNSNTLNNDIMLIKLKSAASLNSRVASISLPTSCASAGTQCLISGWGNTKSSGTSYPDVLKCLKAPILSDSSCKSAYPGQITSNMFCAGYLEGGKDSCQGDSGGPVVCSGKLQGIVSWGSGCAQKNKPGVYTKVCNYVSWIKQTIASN", "assay": "cell-based or functional assay"}, "plasmin (human)": {"molecular_target": "plasmin (human) (human, UniProt P00747 97-810)", "sequence (P00747 97-810)": "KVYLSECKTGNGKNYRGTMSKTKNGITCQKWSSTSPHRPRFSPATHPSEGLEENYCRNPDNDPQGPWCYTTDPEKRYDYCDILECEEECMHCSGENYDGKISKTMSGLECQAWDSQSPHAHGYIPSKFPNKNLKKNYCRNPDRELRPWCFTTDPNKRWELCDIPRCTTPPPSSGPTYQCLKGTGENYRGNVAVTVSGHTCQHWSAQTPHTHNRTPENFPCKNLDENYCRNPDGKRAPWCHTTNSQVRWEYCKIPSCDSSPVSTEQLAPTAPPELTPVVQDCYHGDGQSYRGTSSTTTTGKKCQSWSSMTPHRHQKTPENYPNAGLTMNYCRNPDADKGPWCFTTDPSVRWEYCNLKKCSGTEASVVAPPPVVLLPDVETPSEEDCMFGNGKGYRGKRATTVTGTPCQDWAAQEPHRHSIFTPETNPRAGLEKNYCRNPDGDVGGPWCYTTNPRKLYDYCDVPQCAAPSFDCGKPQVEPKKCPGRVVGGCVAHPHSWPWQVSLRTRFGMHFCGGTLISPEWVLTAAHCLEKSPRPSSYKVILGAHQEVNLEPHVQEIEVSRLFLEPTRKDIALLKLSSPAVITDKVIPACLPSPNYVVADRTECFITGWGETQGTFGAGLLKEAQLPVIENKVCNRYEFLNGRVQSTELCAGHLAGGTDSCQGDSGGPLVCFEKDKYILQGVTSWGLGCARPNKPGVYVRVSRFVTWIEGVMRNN", "assay": "cell-based or functional assay"}, "[6]": {"molecular_target": "T1, human activated coagulation factor X …", "assay": "cell-based or functional assay"}, "skin β-tryptase (human)": {"molecular_target": "skin β-tryptase (human) (human, UniProt Q15661 31-275)", "sequence (Q15661 31-275)": "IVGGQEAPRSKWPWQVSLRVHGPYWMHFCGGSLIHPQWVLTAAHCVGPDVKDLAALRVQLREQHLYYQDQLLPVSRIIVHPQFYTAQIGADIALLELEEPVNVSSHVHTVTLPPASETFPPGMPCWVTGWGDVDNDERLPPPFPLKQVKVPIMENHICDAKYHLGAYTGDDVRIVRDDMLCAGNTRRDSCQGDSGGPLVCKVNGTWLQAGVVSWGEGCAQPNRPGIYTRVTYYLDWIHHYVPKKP", "assay": "cell-based or functional assay"}, "cathepsin G (human) [7]": {"molecular_target": "T3, cathepsin G (human)", "assay": "calculated by Cheng-Prusoff from the enzyme-inhibition IC50 and the substrate Km (250 uM general chymotrypsin substrate)", "description": "(§3) The Kₘ for the elastase substrate was 38.5±3.3 μM, and the estimated Kᵢ was ˜0.65 nM. For FXa the substrate Kₘ was 161.6±17.4 μM, and the estimated Kᵢ was ˜2.1 nM. For Cathepsin G the Kₘ was 188±20 μM, and the Kᵢ was 100 nM. A general chymotrypsin substrate was used to assess Cathepsin G activity; as this substrate is not optimized for Cathepsin G it is likely that our measurement of the Kᵢ underestimates the effect of rSimukunin. Further studies of the effect of rSimukunin on Cathepsin G will be performed.\n(§4) Enzymes, at the concentrations given in Table 1, were incubated with the indicated concentration of rSimukunin for five minutes at 30° C., followed by addition of substrate (250 μM final concentration). The amount of enzyme used in the assays was the lowest possible to give a linear substrate hydrolysis rate in the assays (r2>0.95). Substrate hydrolysis was followed in a Tecan Infinite M200 96-well plate fluorescence reader (Tecan group Ltd, Switzerland) using 365 nm excitation and 450 nm emission wavelength with a cutoff at 435 nm for 20 min at 30° C. Wells without enzyme were used to monitor spontaneous substrate hydrolysis and protease contamination in the inhibitor preparation. All experiments were performed in triplicate (for each enzyme and each concentration of the inhibitor). […]"}, "[8]": {"molecular_target": "T4, elastase (human; for SPR purified from …)", "assay": "calculated by Cheng-Prusoff from the enzyme-inhibition IC50 and the substrate Km (250 uM substrate)", "description": "as §3, §4"}, "[9]": {"molecular_target": "T1, human activated coagulation factor X …", "assay": "calculated by Cheng-Prusoff from the enzyme-inhibition IC50 and the substrate Km (250 uM substrate)", "description": "as §3, §4"}, "[10]": {"molecular_target": "T4, elastase (human; for SPR purified from …)", "assay": "SPR (Biacore T100), rSimukunin immobilized on CM5, elastase as analyte, 1:1 Langmuir fit", "description": "as §1, §2"}, "[11]": {"molecular_target": "T5, coagulation Factor VIIa (FVIIa), recombinant (UniProt P08709 61-466)", "T5 construct": "mature", "T5 sequence (looked up)": "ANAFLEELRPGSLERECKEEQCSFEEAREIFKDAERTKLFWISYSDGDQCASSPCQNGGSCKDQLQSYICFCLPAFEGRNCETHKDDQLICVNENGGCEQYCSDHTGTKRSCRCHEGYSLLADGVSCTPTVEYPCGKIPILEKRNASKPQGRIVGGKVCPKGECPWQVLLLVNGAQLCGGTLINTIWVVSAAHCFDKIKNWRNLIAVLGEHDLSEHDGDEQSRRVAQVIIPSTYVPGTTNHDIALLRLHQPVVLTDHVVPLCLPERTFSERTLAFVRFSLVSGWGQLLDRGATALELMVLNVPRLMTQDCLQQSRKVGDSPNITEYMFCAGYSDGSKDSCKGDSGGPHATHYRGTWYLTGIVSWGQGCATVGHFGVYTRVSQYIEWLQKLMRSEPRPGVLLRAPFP", "assay": "SPR (Biacore T100), rSimukunin immobilized on CM5"}, "[12]": {"molecular_target": "T6, coagulation Factor XIIIa (FXIIIa) (UniProt P00488 39-732, limits assumed)", "T6 construct": "mature", "T6 sequence (looked up)": "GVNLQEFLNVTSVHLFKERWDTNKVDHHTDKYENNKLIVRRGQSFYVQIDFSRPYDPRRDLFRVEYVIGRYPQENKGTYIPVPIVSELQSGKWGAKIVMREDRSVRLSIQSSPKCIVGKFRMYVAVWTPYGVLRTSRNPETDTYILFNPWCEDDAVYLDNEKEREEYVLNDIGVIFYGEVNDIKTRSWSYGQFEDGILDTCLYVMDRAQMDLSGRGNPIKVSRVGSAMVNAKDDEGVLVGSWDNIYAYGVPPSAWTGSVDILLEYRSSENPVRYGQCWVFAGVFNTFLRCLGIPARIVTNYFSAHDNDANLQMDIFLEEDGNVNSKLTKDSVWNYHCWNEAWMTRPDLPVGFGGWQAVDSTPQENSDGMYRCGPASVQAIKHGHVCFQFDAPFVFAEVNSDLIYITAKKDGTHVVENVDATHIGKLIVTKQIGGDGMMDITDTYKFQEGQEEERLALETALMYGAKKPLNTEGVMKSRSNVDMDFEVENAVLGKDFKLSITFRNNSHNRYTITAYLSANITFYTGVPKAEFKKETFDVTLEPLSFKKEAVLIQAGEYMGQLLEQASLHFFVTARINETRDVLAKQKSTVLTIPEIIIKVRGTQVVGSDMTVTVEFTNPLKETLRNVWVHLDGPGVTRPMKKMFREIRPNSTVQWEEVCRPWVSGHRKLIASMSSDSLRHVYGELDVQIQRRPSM", "assay": "SPR (Biacore T100), rSimukunin immobilized on CM5"}, "[13]": {"molecular_target": "T7, coagulation Factor X (FX), zymogen precursor of FXa (UniProt P00742 41-488)", "T7 construct": "mature; also called zymogenic form of FX", "T7 sequence (P00742 41-488 limits assumed)": "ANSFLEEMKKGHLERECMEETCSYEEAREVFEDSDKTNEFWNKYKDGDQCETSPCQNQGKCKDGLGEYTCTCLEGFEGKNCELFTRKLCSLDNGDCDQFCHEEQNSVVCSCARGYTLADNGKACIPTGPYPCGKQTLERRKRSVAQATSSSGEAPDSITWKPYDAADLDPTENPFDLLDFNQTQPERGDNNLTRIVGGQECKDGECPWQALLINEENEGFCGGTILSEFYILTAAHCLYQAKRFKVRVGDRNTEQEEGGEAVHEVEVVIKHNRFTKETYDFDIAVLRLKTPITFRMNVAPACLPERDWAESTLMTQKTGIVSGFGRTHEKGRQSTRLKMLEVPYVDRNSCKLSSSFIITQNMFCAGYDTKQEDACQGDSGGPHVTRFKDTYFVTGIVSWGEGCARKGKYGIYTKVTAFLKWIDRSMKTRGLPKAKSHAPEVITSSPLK", "assay": "SPR (Biacore T100), rSimukunin immobilized on CM5"}}, "data": [{"binder": "recombinant Simukunin (rSV-66), Simulium vittatum SV-66 without signal peptide, His-tagged, expressed in E. coli (other, also called rSimukunin; WT rSimukunin; not shown: His tag(s) from vector pET-30 Ek/LIC ('C-terminal double His tags')) QENVCNLPVDEGVCRALFKRFYYEPATDSCKEFYYGGCEGNGNRFKSKKECILKCQKNKQLIKTRKRKPKKTTKPPIPIISLD", "values": [{"measurement": "Kd", "setting": "[1]", "value": 3.07, "unit": "nM"}, {"measurement": "koff", "setting": "[1]", "value": 0.000303, "unit": "s⁻¹"}, {"measurement": "kon", "setting": "[1]", "value": 98700, "unit": "M⁻¹ s⁻¹"}, {"measurement": "binding result", "setting": "chymase (human)", "value": "binds"}, {"measurement": "Ratio of IC50 to enzyme concentration", "setting": "cathepsin G (human) [2]", "value": 32.5}, {"measurement": "Ratio of IC50 to enzyme concentration", "setting": "[3]", "value": 27.2}, {"measurement": "Ratio of IC50 to enzyme concentration", "setting": "kallikrein (human)", "value": 1150}, {"measurement": "Ratio of IC50 to enzyme concentration", "setting": "[4]", "value": 945}, {"measurement": "Ratio of IC50 to enzyme concentration", "setting": "[5]", "value": 3790}, {"measurement": "Ratio of IC50 to enzyme concentration", "setting": "plasmin (human)", "value": 161}, {"measurement": "Ratio of IC50 to enzyme concentration", "setting": "[6]", "value": 52}, {"measurement": "Ratio of IC50 to enzyme concentration", "setting": "skin β-tryptase (human)", "value": 6680}, {"measurement": "Ki", "setting": "cathepsin G (human) [7]", "value": 100, "unit": "nM"}, {"measurement": "Ki", "setting": "[8]", "value": "~0.65", "unit": "nM"}, {"measurement": "Ki", "setting": "[9]", "value": "~2.1", "unit": "nM"}, {"measurement": "Kd", "setting": "[10]", "value": 0.4, "unit": "nM"}, {"measurement": "koff", "setting": "[10]", "value": 0.0173, "unit": "s⁻¹"}, {"measurement": "kon", "setting": "[10]", "value": "4.3e+07", "unit": "M⁻¹ s⁻¹"}, {"measurement": "binding result", "setting": "[11]", "value": "no binding (tested: 200 nM)"}, {"measurement": "binding result", "setting": "[12]", "value": "no binding (tested: 200 nM)"}, {"measurement": "binding result", "setting": "[13]", "value": "no binding (tested: 200 nM)"}]}]}
